# T1: ASTN1 peptide on HLA-A*02:01 (human)
# T1 peptide: KLYGLDWAEL
# T2: MAGE-A4 peptide on HLA-A*02:01 (human)
# T2 peptide: GVYDGREHTV
# Columns and labels:
# [1] = biological target: T1, ASTN1 peptide on HLA-A*02:01; test: cytokine release
# [2] = biological target: T2, MAGE-A4 peptide on HLA-A*02:01; test: multimer staining
binding result [1],binding result [2],Binder
no recognition,recognises,"TCR-1 (TCR, V domains shown) Valpha: AQKITQTQPGMFVQEKEAVTLDCTYDTSDQSYGLFWYKQPSSGEMIFLIYQGSYDEQNATEGRYSLNFQKARKSANLVISASQLGDSAMYFCAMSGDSAGNMLTFGGGTRLMVKP Vbeta: not shown"
no recognition,recognises,"TCR-3 (TCR, V domains shown) Valpha: GENVEQHPSTLSVQEGDSAVIKCTYSDSASNYFPWYKQELGKRPQLIIDIRSNVGEKKDQRIAVTLNKTAKHFSLHITETQPEDSAVYFCAASRGTGFQKLVFGTGTRLLVSP Vbeta: DTAVSQTPKYLVTQMGNDKSIKCEQNLGHDTMYWYKQDSKKFLKIMFSYNNKELIINETVPNRFSPKSPDKAHLNLHINSLELGDSAVYFCASSQFWDGAGDEQYFGPGTRLTVT"
no recognition,,"TCR-2 (TCR, V domains shown) Valpha: AQKITQTQPGMFVQEKEAVTLDCTYDTSDPSYGLFWYKQPSSGEMIFLIYQGSYDQQNATEGRYSLNFQKARKSANLVISASQLGDSAMYFCAMSGGYTGGFKTIFGAGTRLFVKA Vbeta: DSGVTQTPKHLITATGQRVTLRCSPRSGDLSVYWYQQSLDQGLQFLIQYYNGEERAKGNILERFSAQQFPDLHSELNLSSLELGDSALYFCASSGGDGDEQFFGPGTRLTVL"

# Reference: patent US20230159612A1 (published 2023)
